Measured values: patent US20090061443

Target: T1, Flag-CALM-AF10 fusion protein (wild-type), Q13492
T1 chain: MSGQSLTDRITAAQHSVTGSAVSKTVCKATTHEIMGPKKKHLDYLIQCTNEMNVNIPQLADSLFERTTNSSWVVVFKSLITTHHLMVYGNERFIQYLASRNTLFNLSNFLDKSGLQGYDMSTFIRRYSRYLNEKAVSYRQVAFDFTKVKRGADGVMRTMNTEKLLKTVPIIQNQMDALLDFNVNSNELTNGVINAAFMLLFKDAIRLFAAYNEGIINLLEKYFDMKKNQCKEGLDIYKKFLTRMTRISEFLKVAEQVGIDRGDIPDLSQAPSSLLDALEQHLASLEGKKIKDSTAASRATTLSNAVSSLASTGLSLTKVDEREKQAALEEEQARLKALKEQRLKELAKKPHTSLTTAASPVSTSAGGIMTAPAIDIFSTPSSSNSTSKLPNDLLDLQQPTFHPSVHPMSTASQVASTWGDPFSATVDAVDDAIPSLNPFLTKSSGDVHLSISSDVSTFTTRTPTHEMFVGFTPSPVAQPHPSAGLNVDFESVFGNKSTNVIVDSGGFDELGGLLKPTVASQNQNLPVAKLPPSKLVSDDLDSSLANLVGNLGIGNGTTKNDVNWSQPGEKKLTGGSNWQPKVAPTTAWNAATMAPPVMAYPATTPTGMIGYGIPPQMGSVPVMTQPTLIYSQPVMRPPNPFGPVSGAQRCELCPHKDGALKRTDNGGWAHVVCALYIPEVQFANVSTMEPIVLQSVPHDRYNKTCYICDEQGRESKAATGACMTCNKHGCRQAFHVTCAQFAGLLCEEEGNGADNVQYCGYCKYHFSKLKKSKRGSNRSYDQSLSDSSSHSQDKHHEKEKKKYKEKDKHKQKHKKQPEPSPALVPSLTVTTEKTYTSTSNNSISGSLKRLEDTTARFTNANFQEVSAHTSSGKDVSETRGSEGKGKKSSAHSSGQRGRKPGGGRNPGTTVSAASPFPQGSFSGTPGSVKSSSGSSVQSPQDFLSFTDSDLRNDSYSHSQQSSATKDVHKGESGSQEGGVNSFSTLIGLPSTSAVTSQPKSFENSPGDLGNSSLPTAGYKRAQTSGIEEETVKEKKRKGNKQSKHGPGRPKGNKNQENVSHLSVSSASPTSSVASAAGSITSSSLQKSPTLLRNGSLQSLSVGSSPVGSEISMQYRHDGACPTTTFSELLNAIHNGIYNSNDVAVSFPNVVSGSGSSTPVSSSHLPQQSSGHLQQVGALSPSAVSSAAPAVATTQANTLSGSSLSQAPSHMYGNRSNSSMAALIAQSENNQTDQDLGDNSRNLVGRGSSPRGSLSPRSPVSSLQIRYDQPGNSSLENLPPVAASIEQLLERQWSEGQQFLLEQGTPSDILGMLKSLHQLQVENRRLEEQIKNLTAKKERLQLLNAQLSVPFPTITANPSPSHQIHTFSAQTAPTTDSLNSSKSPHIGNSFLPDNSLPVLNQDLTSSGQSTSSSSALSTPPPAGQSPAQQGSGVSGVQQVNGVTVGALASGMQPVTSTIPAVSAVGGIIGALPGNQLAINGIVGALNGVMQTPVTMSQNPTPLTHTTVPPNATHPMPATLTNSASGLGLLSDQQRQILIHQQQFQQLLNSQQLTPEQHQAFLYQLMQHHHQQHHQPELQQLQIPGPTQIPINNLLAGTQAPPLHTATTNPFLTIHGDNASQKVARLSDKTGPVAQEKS

B1: hDOT1L (human DOT1-like protein) (protein)
chain: MGEKLELRLKSPVGAEPAVYPWPLPVYDKHHDAAHEIIETIRWVCEEIPDLKLAMENYVLIDYDTKSFESMQRLCDKYNRAIDSIHQLWKGTTQPMKLNTRPSTGLLRHILQQVYNHSVTDPEKLNNYEPFSPEVYGETSFDLVAQMIDEIKMTDDDLFVDLGSGVGQVVLQVAAATNCKHHYGVEKADIPAKYAETMDREFRKWMKWYGKKHAEYTLERGDFLSEEWRERIANTSVIFVNNFAFGPEVDHQLKERFANMKEGGRIVSSKPFAPLNFRINSRNLSDIGTIMRVVELSPLKGSVSWTGKPVSYYLHTIDRTILENYFSSLKNPKLREEQEAARRRQQRESKSNAATPTKGPEGKVAGPADAPMDSGAEEEKAGAATVKKPSPSKARKKKLNKKGRKMAGRKRGRPKKMNTANPERKPKKNQTALDALHAQTVSQTAASSPQDAYRSPHSPFYQLPPSVQRHSPNPLLVAPTPPALQKLLESFKIQYLQFLAYTKTPQYKASLQELLGQEKEKNAQLLGAAQQLLSHCQAQKEEIRRLFQQKLDELGVKALTYNDLIQAQKEISAHNQQLREQSEQLEQDNRALRGQSLQLLKARCEELQLDWATLSLEKLLKEKQALKSQISEKQRHCLELQISIVELEKSQRQQELLQLKSCVPPDDALSLHLRGKGALGRELEPDASRLHLELDCTKFSLPHLSSMSPELSMNGQAAGYELCGVLSRPSSKQNTPQYLASPLDQEVVPCTPSHVGRPRLEKLSGLAAPDYTRLSPAKIVLRRHLSQDHTVPGRPAASELHSRAEHTKENGLPYQSPSVPGSMKLSPQDPRPLSPGALQLAGEKSSEKGLRERAYGSSGELITSLPISIPLSTVQPNKLPVSIPLASVVLPSRAERARSTPSPVLQPRDPSSTLEKQIGANAHGAGSRSLALAPAGFSYAGSVAISGALAGSPASLTPGAEPATLDESSSSGSLFATVGSRSSTPQHPLLLAQPRNSLPASPAHQLSSSPRLGGAAQGPLPEASKGDLPSDSGFSDPESEAKRRIVFTITTGAGSAKQSPSSKHSPLTASARGDCVPSHGQDSRRRGRRKRASAGTPSLSAGVSPKRRALPSVAGLFTQPSGSPLNLNSMVSNINQPLEITAISSPETSLKSSPVPYQDHDQPPVLKKERPLSQTNGAHYSPLTSDEEPGSEDEPSSARIERKIATISLESKSPPKTLENGGGLAGRKPAPAGEPVNSSKWKSTFSPISDIGLAKSADSPLQASSALSQNSLFTFRPALEEPSADAKLAAHPRKGFPGSLSGADGLSPGTNPANGCTFGGGLAADLSLHSFSDGASLPHKGPEAAGLSSPLSFPSQRGKEGSDANPFLSKRQLDGLAGLKGEGSRGKEAGEGGLPLCGPTDKTPLLSGKAAKARDREVDLKNGHNLFISAAAVPPGSLLSGPGLAPAASSAGGAASSAQTHRSFLGPFPPGPQFALGPMSLQANLGSVAGSSVLQSLFSSVPAAAGLVHVSSAATRLTNSHAMGSFSGVAGGTVGGN
confocal microscopy of co-expressed hDOT1L and CALM-AF10: High resolution analysis of the proteins indicates that they colocalize in the nucleus
